# Assay results: US20230073274A1 (NOVELMED THERAPEUTICS, published 2023)
# Like-named read-outs stand apart in the source and are kept apart here.
# What was measured:
# [1] = target: T1, human properdin (human, UniProt P27918 28-469); test: cell-based or functional assay
# [2] = target: T1, human properdin; test: cell-based or functional assay; remark: listed apart in the source
# [3] = target: T1, human properdin; test: cell-based or functional assay; remark: listed apart in the source
# [4] = target: T1, human properdin; test: ELISA, human properdin coated on the plate, OD 450 nm
# Method: (§1) Polystyrene microtiter plates were coated with human (2.0 μg/50 μl per well) properdin in phosphate buffered saline (PBS) overnight at 4° C. After aspirating the properdin solution, the wells were blocked with PBS containing 1% bovine serum albumin (BSA) (Sigma-Aldrich, St. Louis, Mo.) for 2 hours at room temperature. Wells without peptide or properdin coating served as background controls. Aliquots of the test antibody in blocking solution were added to the properdin coated wells and allowed to incubate for 1 hour to allow binding to occur. Following a 1 hour incubation at room temperature, the plate was rinsed with PBS five times and incubated with 1:2000 diluted anti-properdin polyclonal antibody.
# [5] = target: T1, human properdin; test: ELISA, human properdin coated on plate
# Method: as §1
# [6] = target: T1, human properdin; test: cell-based or functional assay; remark: listed apart in the source
# [7] = target: T1, human properdin; test: ELISA, properdin coated on the plate, OD 450 nm
# [8] = target: T1, human properdin; test: cell-based or functional assay; remark: listed apart in the source
# [9] = target: T1, human properdin; test: cell-based or functional assay; remark: listed apart in the source
# T1 sequence (P27918 28-469 limits assumed): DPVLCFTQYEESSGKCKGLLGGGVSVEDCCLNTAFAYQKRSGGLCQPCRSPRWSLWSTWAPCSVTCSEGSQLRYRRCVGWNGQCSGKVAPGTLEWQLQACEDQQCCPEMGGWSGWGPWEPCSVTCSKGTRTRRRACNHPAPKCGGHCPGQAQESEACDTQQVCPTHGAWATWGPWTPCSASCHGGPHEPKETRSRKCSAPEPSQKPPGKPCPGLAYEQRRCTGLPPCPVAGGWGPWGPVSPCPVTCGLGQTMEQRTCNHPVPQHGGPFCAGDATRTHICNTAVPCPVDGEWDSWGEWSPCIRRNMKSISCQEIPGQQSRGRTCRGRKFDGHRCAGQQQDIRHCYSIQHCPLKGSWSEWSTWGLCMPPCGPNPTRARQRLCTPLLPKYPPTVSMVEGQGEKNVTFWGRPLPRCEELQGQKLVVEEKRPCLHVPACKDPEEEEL
MAC (µg/Ml); inhibition of MAC formation [2],Properdin (µg/mL); inhibition of properdin deposition [2],EC50 (read off the curve) [4],Binding Affinity [5],Binder,also measured
–,–,–,–,"NMT30-100 (antibody, V domains shown) VH: EVTLKESGPTLVKPTQTLTLTCTFSGFSLSTSGMGVGWIRQPPGKALEWLAHIWWDDVKSYNPALKSRLTITKDTSKNQVVLTITNVDPVDTATYYCARIGDGYYSFDYWGQGTTLTVSS VL: DIQMTQSPSSLSASVGDRVTITCRASQDVSDAVAWFQQKPGKAPKLLIYSPSYRYTGVPSRFSGSGSGTDFTFTISSLQPEDFATYYCQQHYSTPWTFGQGTKLEIK",IC50 (read off the curve): C3b deposition (sheet title: LPS C3b 10% NHS) [1]: ~0.6 µg/mL
–,–,–,–,"NMT31-100 (antibody, V domains shown) VH: EVTLKESGPTLVKPTQTLTLTCTFSGFSLSTSGMGVGWIRQPPGKALEWLAHIWWDDVKSYNPALKSRLTITKDTSKNQVVLTMTNMDPVDTATYYCARIGDGYYSFDYWGQGTTVTVSS VL: DIQMTQSPSSLSASVGDRVTITCRASQDVSDAVAWFQQKPGKAPKLLIYSPSYRYTGVPSRFSGSGSGTDFTFTISSLQPEDLATYYCQQHYSTPWTFGQGTKLEIK",IC50 (read off the curve): C3b deposition (sheet title: LPS C3b 10% NHS) [1]: ~0.5 µg/mL
–,–,–,–,"NMT31-101 (antibody, V domains shown) VH: EVTLKESGPTLVKPTQTLTLTCTFSGFSLSTSGMGVGWIRQPPGKALEWLAHIWWDDVKSYNPALKSRLTITKDTSKNQVVLTMTNMDPVDTATYYCARIGDGYYSFDYWGQGTTVTVSS VL: DIQMTQSPSSLSASVGDRVTITCRASQDVSDAVAWFQQKPGKAPKLLIYSPSYRYTGVPSRFSGSGSGTDFTFTISSLQPEDLATYYCQQHYSTPWTFGQGTKLEIK",IC50 (read off the curve): C3b deposition (sheet title: LPS C3b 10% NHS) [1]: ~0.5 µg/mL
–,–,–,–,"NMT30-101 (antibody, V domains shown) VH: EVTLKESGPTLVKPTQTLTLTCTFSGFSLSTSGMGVGWIRQPPGKALEWLAHIWWDDVKSYNPALKSRLTITKDTSKNQVVLTITNVDPVDTATYYCARIGDGYYSFDYWGQGTTLTVSS VL: DIQMTQSPSSLSASVGDRVTITCRASQDVSDAVAWFQQKPGKAPKLLIYSPSYRYTGVPSRFSGSGSGTDFTFTISSLQPEDFATYYCQQHYSTPWTFGQGTKLEIK",IC50 (read off the curve): C3b deposition (sheet title: LPS C3b 10% NHS) [1]: ~0.6 µg/mL
9 µg/mL,3 µg/mL,~0.3 nM,289 pM,"NMT18 (antibody, V domains shown) VH: EVQLVQSGAEVKKPGASVKVSCKASGYIFTNYPIHWVRQAPGQGLEWMGFIDPGGGYDEPDERFRDRVTMTADTSTSTAYMELSSLRSEDTAVYYCARRGGGYYLDYWGQGTTVTVSS VL: DIQMTQSPSSLSASVGDRVTITCRASQDISFFLNWYQQKPGKAPKLLIYYTSRYHSGVPSRFSGSGSGTDFTLTISSLQPEDFATYYCQHGQTLPWTFGQGTKLEIK","IC50 (read off the curve): properdin deposition (AP activation on LPS, 10% normal human serum) [3]: ~0.9 µg/mL; IC50 (read off the curve): C3b deposition (AP activation on LPS, normal human serum) [6]: ~0.5 µg/mL"
–,–,–,–,"NMT24 (antibody, V domains shown) VH: EVQLVQSGAEVKKPGASVKVSCKASGYIFTNYPIHWVRQAPGKGLEWMGFIDPGGGHDEYADSVKGRVTMTRDTSTSTVYMELSSLRSEDTAVYYCARRGGGYYLDYWGQGTLVTVSS VL: DIQMTQSPSSLSASVGDRVTITCRASQDISFFLNWYQQKPGKAPKLLIYGASSYHSGVPSRFSGSGSGTDFTLTISSLQPEDFATYYCQHGQTLPRTFGQGTKVEIK",binding result [7]: no binding (tested: about 13 nM)
–,–,–,–,"NMT23 (antibody, V domains shown) VH: EVQLVQSGAEVKKPGASVKVSCKASGYIFTNYPIHWVRQAPGKGLEWMGFIDPGGGHDEYADSVKGRVTMTRDTSTSTVYMELSSLRSEDTAVYYCARRGGGYYLDYWGQGTLVTVSS VL: DIQMTQSPSSLSASVGDRVTITCRASQDISFFLNWYQQKPGKAPKLLIYYTSRYHSGVPSRFSGSGSGTDFTLTISSLQPEDFATYYCQHGSTLPWTFGQGTKVEIK",EC50 (read off the curve) [7]: ~0.2 nM
–,–,–,–,"NMT26 (antibody, V domains shown) VH: EVQLVESGGGLVQPGRSLRLSCAASGYIFTNYPIHWVRQAPGKGLEWVSFIDPGGGHIDYADSVEGRFTISRDNAKNSLYLQMNSLRAEDTAVYYCAKRGGGYYLDYWGQGTLVTVSS VL: DIQMTQSPSSLSASVGDRVTITCRASQDISFFLNWYQQKPGKAPKLLIYYTSRYHSGVPSRFSGSGSGTDFTLTISSLQPEDVATYYCQHGSTLPYTFGQGTKVEIK",binding result [7]: no binding (tested: about 13 nM)
–,–,–,–,"NMT28 (antibody, V domains shown) VH: EVQLVQSGAEVKKPGASVKVSCKASGYIFTNYPIHWVRQAPGQGLEWMGFIDPGGGYDEPDERFRDRVTMTADTSTSTAYMELSSLRSEDTAVYYCARRGGGYYLDYWGQGTLVTVSS VL: DIQMTQSPSSLSASVGDRVTITCRASQDISFFLNWYQQKPGKAPKLLIYYTSRYHSGVPSRFSGSGSGTDFTLTISSLQPEDFATYYCQHGQTLPWTFGQGTKVEIK",EC50 (read off the curve) [7]: ~0.06 nM; IC50 (read off the curve): C3b deposition (AP C3 convertase formation assay) [8]: ~0.3 µg/mL; IC50 (read off the curve): properdin deposition (AP C3 convertase formation assay) [8]: ~0.3 µg/mL
8 µg/mL,8 µg/mL,0.3 to 0.4 nM,353 pM,"NMT21 (antibody, V domains shown) VH: EVQLVQSGAEVKKPGASVKVSCKASGYIFTNYPIHWVRQAPGQGLEWMGFIDPGGGYDEYAQKFQGRVTLTADTSTSTAYMELSSLRSEDTAVYYCARRGGGYYLDYWGQGTTLTVSS VL: DIQMTQSPSSLSASVGDRVTITCRASQDISFFLNWYQQKPGKAPKLLIYYTSRYHSGVPSRFSGSGSGTDFTLTISSLQPEDFATYYCQHGQTLPWTFGQGTKLEIK","IC50 (read off the curve): properdin deposition (AP activation on LPS, 10% normal human serum) [9]: ~1 µg/mL; IC50 (read off the curve): C3b deposition (AP activation on LPS, normal human serum) [6]: ~0.5 µg/mL"
–,–,–,–,"NMT27 (antibody, V domains shown) VH: EVQLVQSGAEVKKPGASVKVSCKASGYIFTNYPIHWVRQAPGKGLEWMGFIDPGGGYDEPDERFRDRVTMTRDTSTSTVYMELSSLRSEDTAVYYCARRGGGYYLDYWGQGTLVTVSS VL: DIQMTQSPSSLSASVGDRVTITCRASQDISFFLNWYQQKPGKAPKLLIYYTSRYHSGVPSRFSGSGSGTDFTLTISSLQPEDFATYYCQHGSTLPRTFGQGTKVEIK",binding result [7]: binds
25 µg/mL,30 µg/mL,~0.3 nM,297 pM,"NMT20 (antibody, V domains shown) VH: EVQLVQSGAEVKKPGASVKVSCKASGYIFTNYPIHWVRQAPGQGLEWMGFIDPGGGYDEPDERFRDRVTMTADTSTSTAYMELSSLRSEDTAVYYCARRGGGYYLDYWGQGTTVTVSS VL: DIQMTQSPSSLSASVGDRVTITCRASQDISFFLNWYQQKPGKAPKLLIYYTSRYHSGVPSRFSGSGSGTDFTLTISSLQPEDFATYYCQHGSTLPYTFGQGTKLEIK","IC50 (read off the curve): properdin deposition (AP activation on LPS, 10% normal human serum) [9]: ~1 µg/mL; IC50 (read off the curve): C3b deposition (AP activation on LPS, normal human serum) [6]: ~0.8 µg/mL"
3 µg/mL,4 µg/mL,0.3 to 0.4 nM,315 pM,"NMT16 (antibody, V domains shown) VH: EVQLVQSGAEVKKPGASVKVSCKASGYIFTNYPIHWVRQAPGQGLEWMGFIDPGGGYDEPDERFRDRVTMTADTSTSTAYMELSSLRSEDTAVYYCARRGGGYYLDYWGQGTTVTVSS VL: DIQMTQSPSSLSASVGDRVTITCRASQDISFFLNWYQQKPGKAPKLLIYYTSRYHSGVPSRFSGSGSGTDFTLTISSLQPEDFATYYCQHGNTLPWTFGQGTKLEIK","IC50 (read off the curve): properdin deposition (AP activation on LPS, 10% normal human serum) [3]: ~1 µg/mL"
–,–,0.3 to 0.4 nM,335 pM,"NMT22 (antibody, V domains shown) VH: EVQLVQSGAEVKKPGASVKVSCKASGYIFTNYPIHWVRQAPGQGLEWMGFIDPGGGYDESAQKFRGRVTLTADTSTSTVYMELSSLRSEDTAVYYCARRGGGYYLDYWGQGTTLTVSS VL: DIQMTQSPSSLSASVGDRVTITCRASQDISFFLNWYQQKPGKAPKLLIYYTSRYHSGVPSRFSGSGSGTDFTLTISSLQPEDFATYYCQHGSTLPYTFGQGTKLEIK","IC50 (read off the curve): properdin deposition (AP activation on LPS, 10% normal human serum) [9]: ~9 µg/mL"
5 µg/mL,4 µg/mL,~0.3 nM,283 pM,"NMT17 (antibody, V domains shown) VH: EVQLVQSGAEVKKPGASVKVSCKASGYIFTNYPIHWVRQAPGQGLEWMGFIDPGGGYDEPDERFRDRVTMTADTSTSTAYMELSSLRSEDTAVYYCARRGGGYYLDYWGQGTTVTVSS VL: DIQMTQSPSSLSASVGDRVTITCRASQDISFFLNWYQQKPGKAPKLLIYYTSRYHSGVPSRFSGSGSGTDFTLTISSLQPEDFATYYCQHGSTLPWTFGQGTKLEIK","IC50 (read off the curve): properdin deposition (AP activation on LPS, 10% normal human serum) [3]: ~0.9 µg/mL; IC50 (read off the curve): C3b deposition (AP activation on LPS, normal human serum) [6]: ~0.7 µg/mL"
–,–,~0.5 nM,486 pM,"NMT19 (antibody, V domains shown) VH: EVQLVQSGAEVKKPGASVKVSCKASGHIFTNYPIHWVRQAPGQGLEWMGFIDPGGGHDEPDERFRDRVTMTADTSTSTAYMELSSLRSEDTAVYYCARRGGGYYLDYWGQGTTVTVSS VL: DIQMTQSPSSLSASVGDRVTITCRASQDISFFLNWYQQKPGKAPKLLIYYTSRYHSGVPSRFSGSGSGTDFTLTISSLQPEDFATYYCQHGQTLPWTFGQGTKLEIK","IC50 (read off the curve): properdin deposition (AP activation on LPS, 10% normal human serum) [9]: ~10 µg/mL"
